The series deals with the molecule itself. Nature of the series: crystal structure; three crystal forms (P2(1)2(1)2, P2(1), C2) at 2.5, 2.9 and 2.3 Å; co-crystallised with 50 mM NAD+ with or without 10 mM TMABA, PEG 4000, 0.1 M sodium citrate pH 5.6; apoform seen; tetramer as dimer-of-dimers.

B1: human ALDH9A1 (enzyme, UniProt P49189 1-494, looked up)
chain: MSTGTFVVSQPLNYRGGARVEPADASGTEKAFEPATGRVIATFTCSGEKEVNLAVQNAKAAFKIWSQKSGMERCRILLEAARIIREREDEIATMECINNGKSIFEARLDIDISWQCLEYYAGLAASMAGEHIQLPGGSFGYTRREPLGVCVGIGAWNYPFQIASWKSAPALACGNAMVFKPSPFTPVSALLLAEIYSEAGVPPGLFNVVQGGAATGQFLCQHPDVAKVSFTGSVPTGMKIMEMSAKGIKPVTLELGGKSPLIIFSDCDMNNAVKGALMANFLTQGQVCCNGTRVFVQKEILDKFTEEVVKQTQRIKIGDPLLEDTRMGPLINRPHLERVLGFVKVAKEQGAKVLCGGDIYVPEDPKLKDGYYMRPCVLTNCRDDMTCVKEEIFGPVMSILSFDTEAEVLERANDTTFGLAAGVFTRDIQRAHRVVAELQAGTCFINNYNVSPVELPFGGYKKSGFGRENGRVTIEYYSQLKTVCVEMGDVESAF
notes: Human ALDH9A1, a protein of 494 amino acids; the ORF was amplified with gene-specific primers and ligated into pCDFDuet (BamHI, XhoI); Monomer of 55.4 kDa including the His-tag; cloning into the BamHI site of pCDFDuet would place a His6 tag at the N-terminus (surmised); Residues 232-256 are disordered in the crystal structures; also called HsALDH9A1; TMABALDH; source: E. coli (T7 express; …)
As usually defined, the stoichiometry N is a count of units in the complex or per binding partner. On to B1, for which the “stoichiometry N” value came out at 4.

The record behind these values is PMC6487263, “Kinetic and structural analysis of human ALDH9A1” (Bioscience Reports, 2019).
